The source of these data is publication PMC7483370 (Molecular cell, 2020).

For assay [1], the target named is p300, purified recombinant (baculovirus) (human, UniProt Q09472 1-2414). Briefly: co-IP.
Assay [2] concerns the target T1, Androgen receptor, full-length, flag-tagged, recombinant (baculovirus) (human, UniProt P10275 1-920).
T1 sequence (looked up): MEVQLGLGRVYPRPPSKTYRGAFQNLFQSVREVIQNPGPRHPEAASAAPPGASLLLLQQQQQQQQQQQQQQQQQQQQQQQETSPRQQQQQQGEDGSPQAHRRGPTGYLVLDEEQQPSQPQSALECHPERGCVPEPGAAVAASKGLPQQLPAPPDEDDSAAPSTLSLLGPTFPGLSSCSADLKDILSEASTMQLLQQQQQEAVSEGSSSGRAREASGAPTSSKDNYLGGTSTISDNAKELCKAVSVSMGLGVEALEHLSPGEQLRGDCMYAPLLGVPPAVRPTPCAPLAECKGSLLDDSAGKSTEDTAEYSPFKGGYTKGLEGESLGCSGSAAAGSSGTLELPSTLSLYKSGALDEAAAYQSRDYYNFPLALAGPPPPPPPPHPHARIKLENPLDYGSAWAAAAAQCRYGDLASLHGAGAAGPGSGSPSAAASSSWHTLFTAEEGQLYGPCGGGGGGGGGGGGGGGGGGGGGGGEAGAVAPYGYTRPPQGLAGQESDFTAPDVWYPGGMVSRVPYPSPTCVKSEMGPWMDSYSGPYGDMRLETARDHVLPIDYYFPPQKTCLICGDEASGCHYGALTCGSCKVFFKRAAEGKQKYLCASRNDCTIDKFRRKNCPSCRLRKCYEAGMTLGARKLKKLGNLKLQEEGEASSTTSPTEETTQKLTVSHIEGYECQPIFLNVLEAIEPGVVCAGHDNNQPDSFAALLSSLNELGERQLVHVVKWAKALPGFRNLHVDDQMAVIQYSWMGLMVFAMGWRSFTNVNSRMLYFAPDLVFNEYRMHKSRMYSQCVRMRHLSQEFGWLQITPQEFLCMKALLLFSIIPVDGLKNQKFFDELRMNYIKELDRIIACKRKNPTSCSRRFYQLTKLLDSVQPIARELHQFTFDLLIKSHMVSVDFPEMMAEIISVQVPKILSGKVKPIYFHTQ
As to the kind of experiment: cryo-EM structure.

p300, purified recombinant (baculovirus), sequence (Q09472 whole entry): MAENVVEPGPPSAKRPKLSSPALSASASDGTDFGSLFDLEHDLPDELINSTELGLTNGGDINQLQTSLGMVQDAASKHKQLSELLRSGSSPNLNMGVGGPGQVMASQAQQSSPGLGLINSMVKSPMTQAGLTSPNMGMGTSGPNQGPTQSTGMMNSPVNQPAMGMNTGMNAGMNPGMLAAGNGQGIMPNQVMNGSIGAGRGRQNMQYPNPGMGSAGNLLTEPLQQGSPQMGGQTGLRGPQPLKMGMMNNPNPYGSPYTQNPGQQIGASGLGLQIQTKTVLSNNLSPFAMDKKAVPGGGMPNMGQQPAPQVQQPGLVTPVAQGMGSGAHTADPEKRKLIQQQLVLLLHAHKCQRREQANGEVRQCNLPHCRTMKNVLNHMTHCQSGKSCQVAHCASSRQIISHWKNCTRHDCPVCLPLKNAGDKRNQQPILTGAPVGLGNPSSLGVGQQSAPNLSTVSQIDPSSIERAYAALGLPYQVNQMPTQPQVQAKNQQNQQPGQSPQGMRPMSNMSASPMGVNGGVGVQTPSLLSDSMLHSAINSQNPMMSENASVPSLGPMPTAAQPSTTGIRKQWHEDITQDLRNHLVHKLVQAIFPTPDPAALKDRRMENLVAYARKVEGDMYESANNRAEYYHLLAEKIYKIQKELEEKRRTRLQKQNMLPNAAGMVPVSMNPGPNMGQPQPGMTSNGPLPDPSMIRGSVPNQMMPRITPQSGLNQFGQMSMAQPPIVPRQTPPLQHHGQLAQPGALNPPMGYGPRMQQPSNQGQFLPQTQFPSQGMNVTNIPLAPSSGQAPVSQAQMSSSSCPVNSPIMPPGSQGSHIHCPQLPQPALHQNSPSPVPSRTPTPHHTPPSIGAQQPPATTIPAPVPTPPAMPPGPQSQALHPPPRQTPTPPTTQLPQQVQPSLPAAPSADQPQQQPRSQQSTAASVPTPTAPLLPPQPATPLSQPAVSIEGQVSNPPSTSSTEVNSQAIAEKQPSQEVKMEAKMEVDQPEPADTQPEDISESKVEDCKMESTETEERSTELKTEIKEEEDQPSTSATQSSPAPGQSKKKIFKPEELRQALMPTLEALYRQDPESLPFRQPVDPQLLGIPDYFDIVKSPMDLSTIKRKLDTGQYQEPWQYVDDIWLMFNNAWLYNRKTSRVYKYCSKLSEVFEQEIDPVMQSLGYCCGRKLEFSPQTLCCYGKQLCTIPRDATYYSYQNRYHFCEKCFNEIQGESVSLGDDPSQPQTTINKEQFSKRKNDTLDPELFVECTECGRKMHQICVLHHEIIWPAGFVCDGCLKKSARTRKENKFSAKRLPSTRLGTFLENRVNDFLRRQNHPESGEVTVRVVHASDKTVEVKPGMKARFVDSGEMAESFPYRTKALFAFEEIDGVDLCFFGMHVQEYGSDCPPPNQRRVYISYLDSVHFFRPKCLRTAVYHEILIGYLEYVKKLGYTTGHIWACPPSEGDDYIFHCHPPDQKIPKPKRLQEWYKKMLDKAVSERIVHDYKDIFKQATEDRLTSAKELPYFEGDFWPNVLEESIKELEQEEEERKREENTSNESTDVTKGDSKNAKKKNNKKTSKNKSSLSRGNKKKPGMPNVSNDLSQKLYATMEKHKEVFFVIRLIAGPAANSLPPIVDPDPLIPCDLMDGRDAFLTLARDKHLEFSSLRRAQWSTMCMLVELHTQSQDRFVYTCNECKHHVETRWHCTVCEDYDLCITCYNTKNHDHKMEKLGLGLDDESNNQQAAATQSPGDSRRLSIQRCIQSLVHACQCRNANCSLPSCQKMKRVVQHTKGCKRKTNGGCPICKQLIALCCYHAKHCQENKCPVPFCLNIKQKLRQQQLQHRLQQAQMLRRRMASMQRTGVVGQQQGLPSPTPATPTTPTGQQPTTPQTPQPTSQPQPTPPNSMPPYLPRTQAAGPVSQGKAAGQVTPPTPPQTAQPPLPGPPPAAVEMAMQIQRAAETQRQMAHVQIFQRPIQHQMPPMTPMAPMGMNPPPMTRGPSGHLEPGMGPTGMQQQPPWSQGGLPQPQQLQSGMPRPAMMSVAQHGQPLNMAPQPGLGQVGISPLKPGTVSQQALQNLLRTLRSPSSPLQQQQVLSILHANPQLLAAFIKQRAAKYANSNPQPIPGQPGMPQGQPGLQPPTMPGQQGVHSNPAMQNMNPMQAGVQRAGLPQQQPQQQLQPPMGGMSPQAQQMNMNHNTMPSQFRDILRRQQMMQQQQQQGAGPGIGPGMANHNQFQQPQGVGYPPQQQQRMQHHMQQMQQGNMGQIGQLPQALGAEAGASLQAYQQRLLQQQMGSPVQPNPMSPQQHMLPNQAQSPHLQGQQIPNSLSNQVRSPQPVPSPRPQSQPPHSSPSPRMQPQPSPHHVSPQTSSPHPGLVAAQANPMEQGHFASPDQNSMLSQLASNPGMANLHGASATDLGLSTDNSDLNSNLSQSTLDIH

B1: Flag-tagged AR (1-669aa), deletion mutant lacking the LBD (domain or fragment, human, UniProt P10275 1-669, looked up)
chain: MEVQLGLGRVYPRPPSKTYRGAFQNLFQSVREVIQNPGPRHPEAASAAPPGASLLLLQQQQQQQQQQQQQQQQQQQQQQQETSPRQQQQQQGEDGSPQAHRRGPTGYLVLDEEQQPSQPQSALECHPERGCVPEPGAAVAASKGLPQQLPAPPDEDDSAAPSTLSLLGPTFPGLSSCSADLKDILSEASTMQLLQQQQQEAVSEGSSSGRAREASGAPTSSKDNYLGGTSTISDNAKELCKAVSVSMGLGVEALEHLSPGEQLRGDCMYAPLLGVPPAVRPTPCAPLAECKGSLLDDSAGKSTEDTAEYSPFKGGYTKGLEGESLGCSGSAAAGSSGTLELPSTLSLYKSGALDEAAAYQSRDYYNFPLALAGPPPPPPPPHPHARIKLENPLDYGSAWAAAAAQCRYGDLASLHGAGAAGPGSGSPSAAASSSWHTLFTAEEGQLYGPCGGGGGGGGGGGGGGGGGGGGGGGEAGAVAPYGYTRPPQGLAGQESDFTAPDVWYPGGMVSRVPYPSPTCVKSEMGPWMDSYSGPYGDMRLETARDHVLPIDYYFPPQKTCLICGDEASGCHYGALTCGSCKVFFKRAAEGKQKYLCASRNDCTIDKFRRKNCPSCRLRKCYEAGMTLGARKLKKLGNLKLQEEGEASSTTSPTEETTQKLTVSHIEGYE
On to B1, for which the binding result in assay [1] was “binds”.

B2: SRC-3, purified recombinant (baculovirus) (natural protein)
chain: not shown
What is called stoichiometry N is a count of units in the complex or per binding partner. As to B2, the “stoichiometry N” value in assay [2] turned out to be 1.
